Results from patent US5851983.
Like-named read-outs stand apart in the source and are kept apart here.

Columns and labels:
[1] = target: Bovine spleen trypsin (Sigma) (bovine) (UniProt P00760)
[2] = target: Polymorphonuclear leukocyte elastase from human sputum (EPC Co.; Funakoshi Yakuhin) (human) (UniProt P08246)
[3] = target: Bovine spleen trypsin (Sigma) (bovine) (UniProt P00760); remark: listed apart in the source
[4] = target: Polymorphonuclear leukocyte elastase from human sputum (EPC Co.; Funakoshi Yakuhin) (human) (UniProt P08246); remark: listed apart in the source
[5] = target: Bovine spleen trypsin (Sigma) (bovine) (UniProt P00760); remark: listed apart in the source
[6] = target: Polymorphonuclear leukocyte elastase from human sputum (EPC Co.; Funakoshi Yakuhin) (human) (UniProt P08246); remark: listed apart in the source
[7] = target: Calf pancreatic trypsin (Sigma) (calf (bovine)) (UniProt P00760)
[8] = target: Polymorphonuclear leukocyte elastase from human sputum (EPC Co.; Funakoshi Yakuhin) (human) (UniProt P08246); remark: listed apart in the source
[9] = target: Calf pancreatic chymotrypsin (Sigma) (calf (bovine)) (UniProt P00766)
[10] = target: Human plasma kallikrein (human) (UniProt P03952)
[11] = target: Human plasma plasmin (human) (UniProt P00747)
[12] = target: Human plasma thrombin (human) (UniProt P00734)
[13] = target: Porcine pancreatic elastase (Sigma) (porcine) (UniProt P00772)
Chain of Porcine pancreatic elastase (Sigma) (porcine) (P00772 27-266): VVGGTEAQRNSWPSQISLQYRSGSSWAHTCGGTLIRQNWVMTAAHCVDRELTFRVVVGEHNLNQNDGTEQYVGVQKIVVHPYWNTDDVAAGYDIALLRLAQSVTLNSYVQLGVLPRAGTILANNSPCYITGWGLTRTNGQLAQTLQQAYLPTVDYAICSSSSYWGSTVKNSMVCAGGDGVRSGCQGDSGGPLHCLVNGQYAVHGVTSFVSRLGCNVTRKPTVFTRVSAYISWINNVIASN

Chain of α1 -AT (Sigma) (P01009 25-418 limits assumed): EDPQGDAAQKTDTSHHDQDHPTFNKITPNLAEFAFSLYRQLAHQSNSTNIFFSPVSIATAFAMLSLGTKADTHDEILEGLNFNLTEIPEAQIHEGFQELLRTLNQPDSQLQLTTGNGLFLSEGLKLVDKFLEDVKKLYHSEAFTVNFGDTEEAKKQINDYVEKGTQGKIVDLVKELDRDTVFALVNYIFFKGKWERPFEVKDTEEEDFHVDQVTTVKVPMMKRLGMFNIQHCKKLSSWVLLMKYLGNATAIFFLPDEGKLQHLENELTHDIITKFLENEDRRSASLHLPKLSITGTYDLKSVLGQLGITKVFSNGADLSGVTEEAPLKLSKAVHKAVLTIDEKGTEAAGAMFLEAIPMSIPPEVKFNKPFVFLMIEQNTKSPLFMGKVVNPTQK
Chain of Human secretory leukoprotease inhibitor (SLPI) (chain): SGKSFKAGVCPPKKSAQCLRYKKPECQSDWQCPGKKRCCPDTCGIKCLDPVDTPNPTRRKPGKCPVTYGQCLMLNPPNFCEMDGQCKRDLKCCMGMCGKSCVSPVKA
Chain of (Arg^59 -Ala^107) SLPI (chain): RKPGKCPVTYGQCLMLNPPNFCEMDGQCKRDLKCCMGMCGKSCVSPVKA
Chain of Bovine spleen trypsin (Sigma) (bovine) (P00760 24-246): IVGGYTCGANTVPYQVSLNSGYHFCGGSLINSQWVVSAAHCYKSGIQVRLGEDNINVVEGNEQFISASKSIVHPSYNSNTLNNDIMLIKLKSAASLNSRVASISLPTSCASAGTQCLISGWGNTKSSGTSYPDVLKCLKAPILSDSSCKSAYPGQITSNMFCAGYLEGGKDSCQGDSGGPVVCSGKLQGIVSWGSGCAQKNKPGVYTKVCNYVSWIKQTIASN
Chain of (Arg^58 -Ala^107) SLPI (chain): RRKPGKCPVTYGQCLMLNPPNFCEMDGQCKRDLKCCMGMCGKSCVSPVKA
Chain of (Asn^55 -Ala^107) SLPI fragment polypeptide (chain): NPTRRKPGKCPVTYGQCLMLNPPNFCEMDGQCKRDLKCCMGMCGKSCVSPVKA
Chain of Calf pancreatic trypsin (Sigma) (calf (bovine)) (P00760 24-246): as the sequence (P00760 24-246) above
Chain of Human plasma plasmin (human) (P00747 97-810 limits assumed): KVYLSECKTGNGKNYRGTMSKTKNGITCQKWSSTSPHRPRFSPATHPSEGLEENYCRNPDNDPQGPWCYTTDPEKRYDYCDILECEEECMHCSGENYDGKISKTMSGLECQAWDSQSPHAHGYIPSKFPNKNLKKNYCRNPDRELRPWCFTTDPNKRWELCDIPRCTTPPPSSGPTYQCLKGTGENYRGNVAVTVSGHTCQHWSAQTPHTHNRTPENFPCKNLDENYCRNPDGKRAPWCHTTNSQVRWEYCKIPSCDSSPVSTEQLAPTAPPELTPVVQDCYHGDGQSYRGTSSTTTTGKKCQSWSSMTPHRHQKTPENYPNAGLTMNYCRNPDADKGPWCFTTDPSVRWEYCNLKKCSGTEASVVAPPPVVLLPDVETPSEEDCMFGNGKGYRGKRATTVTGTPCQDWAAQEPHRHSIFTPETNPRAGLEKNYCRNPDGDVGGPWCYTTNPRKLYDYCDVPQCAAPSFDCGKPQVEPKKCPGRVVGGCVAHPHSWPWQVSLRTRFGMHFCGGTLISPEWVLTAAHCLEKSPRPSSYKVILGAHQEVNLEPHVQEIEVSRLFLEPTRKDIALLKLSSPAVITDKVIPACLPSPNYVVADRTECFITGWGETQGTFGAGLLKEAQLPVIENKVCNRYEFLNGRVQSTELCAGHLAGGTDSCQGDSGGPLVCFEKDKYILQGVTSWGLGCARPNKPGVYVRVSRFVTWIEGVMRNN

Row | IC50 Value [3] [nM] | IC50 Value [4] [nM] | IC50 [5] [nM] | IC50 [6] [nM] | concentration of inhibitory protein which exhibits a 50% inhibition [7] [nM] | Substance | further results
1 | – | – | – | – | – | (Arg^58 -Ala^107) SLPI | IC50 [1]: 2000 nM; IC50 [2]: 12 nM
2 | 2500 | 14 | 2000 | 12 | – | (Arg^59 -Ala^107) SLPI | –
3 | – | – | – | – | 130 | (Asn^55 -Ala^107) SLPI fragment polypeptide | concentration of inhibitory protein which exhibits a 50% inhibition [8]: 1 nM
4 | 240 | 16 | 330 | 13 | – | Human secretory leukoprotease inhibitor (SLPI) | –
5 | – | – | – | – | 200 | α1 -AT (Sigma) (from UniProt P01009) | concentration of inhibitory protein which exhibits a 50% inhibition [9]: 2 µM; concentration of inhibitory protein which exhibits a 50% inhibition [10]: > 2 µM; concentration of inhibitory protein which exhibits a 50% inhibition [11]: > 2 µM; concentration of inhibitory protein which exhibits a 50% inhibition [12]: > 2 µM; concentration of inhibitory protein which exhibits a 50% inhibition [13]: 300 nM
